Our source for the Kd and binding signal values is PMC3744876.

For series [1], the target named is T1, RIG-I CTD (human, UniProt O95786 792-925).
T1 sequence: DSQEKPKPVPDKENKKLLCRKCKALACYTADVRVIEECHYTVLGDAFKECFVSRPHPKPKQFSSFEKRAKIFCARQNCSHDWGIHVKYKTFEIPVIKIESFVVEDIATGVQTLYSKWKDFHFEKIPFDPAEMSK
The experiment in a line: ITC. In general terms: Isothermal titration calorimetry measures the heat released or taken up as one component is titrated into another.

The target of another series is T2, RIG-I CTD H847A/K858A (human, UniProt O95786 792-925, H847A;K858A).
T2 sequence: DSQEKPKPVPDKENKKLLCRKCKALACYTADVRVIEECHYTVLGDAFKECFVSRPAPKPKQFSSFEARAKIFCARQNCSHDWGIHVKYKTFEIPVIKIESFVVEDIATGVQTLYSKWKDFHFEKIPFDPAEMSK
The experiment in a line: ITC.

For series [2], the target named is T3, RIG-I CTD H847A (human, UniProt O95786 792-925, H847A).
T3 sequence: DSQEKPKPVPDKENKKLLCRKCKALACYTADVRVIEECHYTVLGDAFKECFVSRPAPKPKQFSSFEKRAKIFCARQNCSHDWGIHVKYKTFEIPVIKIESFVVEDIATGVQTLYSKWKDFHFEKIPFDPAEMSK
The series is described as follows: ITC.

In series [3] the target is T1, RIG-I CTD. The series is described as follows: ITC. The source holds these as a separate data set.
Series [4] has as its target T3, RIG-I CTD H847A. The experiment in a line: EMSA. For orientation: A gel shift assay detects complexes by their altered migration in electrophoresis.

Read-outs that look alike come from different tables or passages of the source.

B1: 5'-ppp-dsRNA 12-mer (dsRNA)
RNA 1: GACGCUAGCGUC
RNA 2: GACGCUAGCGUC
modifications: 5'-triphosphate on both strands
As to B1, the Kd was determined as 29.2 nM with RIG-I CTD [1], 649 nM with RIG-I CTD H847A/K858A, 162 nM with RIG-I CTD H847A [2] and 215 nM in the series with RIG-I CTD [3].

B2: 5'-ppp-dsRNA 12-mer, 32pCp-labelled (dsRNA)
RNA 1: GACGCUAGCGUC
RNA 2: GACGCUAGCGUC
modifications: 5'-triphosphate; labelled strand (ppp-11-mer S1 + pCp) carries an additional 3'-phosphate
B2 displayed a binding signal with RIG-I CTD H847A [4] of roughly 10 fold weaker than WT.

As usually defined, the Kd is the free concentration of one partner at which half of the binding sites on the other are occupied at equilibrium, for simple one-to-one binding.
